Laboratory results: publication PMC10457330

Assays:
[1] = biological target: photoactivated bovine rhodopsin (bovine) (UniProt P02699)
[2] = biological target: photoactivated bovine rhodopsin (bovine) (UniProt P02699); remark: listed apart in the source
[3] = biological target: P23H bovine opsin (bovine) (UniProt P02699)

B1: Nb2 (llama nanobody against bovine rhodopsin) (VHH)
VHH: QVQLVESGGGLVQPGGSLRLSCAASGFTFSKYAMNWVRQPPGKGLEWVSGIRPSGDNPTYADSVEGRFTIIRDNDKKMVYLQMTSLKTEDTAVYYCTRGYGTMTIEGQGTQVTVSS
B1 showed a UV-Vis decay of A478 nm after addition of 5 mM hydroxylamine, plateau against bRho* alone [1] of 4 times, an intrinsic Trp fluorescence at 330 nm after illumination (Meta II decay, release of retinal) [2] of 3 fold and an opsin level by western blot (1D4) in HEK293S cells co-expressing Nb2 intracellularly, against the non-binding Nb16 control [3] of 2 fold.
